The target of test [1] is CD3 on the surface of T-cells (Jurkat reporter cells) (UniProt P07766). In words: cell-based or functional assay.
Test [2] deals with CDCP1 on human cells (MCF10A KRASG12V, HPAC) (human) (UniProt Q9H5V8). Put plainly: cell-based or functional assay.
The target in test [3] is T1, CDCP1 extracellular domain displayed on the surface of HEK293 (T-Rex-293) cells (human, UniProt Q9H5V8 30-667).
T1 construct: extracellular domain; also called CDCP1 Cell; not shown: fluorescent protein expression reporter and generic single-pass transmembrane domain
T1 sequence (looked up): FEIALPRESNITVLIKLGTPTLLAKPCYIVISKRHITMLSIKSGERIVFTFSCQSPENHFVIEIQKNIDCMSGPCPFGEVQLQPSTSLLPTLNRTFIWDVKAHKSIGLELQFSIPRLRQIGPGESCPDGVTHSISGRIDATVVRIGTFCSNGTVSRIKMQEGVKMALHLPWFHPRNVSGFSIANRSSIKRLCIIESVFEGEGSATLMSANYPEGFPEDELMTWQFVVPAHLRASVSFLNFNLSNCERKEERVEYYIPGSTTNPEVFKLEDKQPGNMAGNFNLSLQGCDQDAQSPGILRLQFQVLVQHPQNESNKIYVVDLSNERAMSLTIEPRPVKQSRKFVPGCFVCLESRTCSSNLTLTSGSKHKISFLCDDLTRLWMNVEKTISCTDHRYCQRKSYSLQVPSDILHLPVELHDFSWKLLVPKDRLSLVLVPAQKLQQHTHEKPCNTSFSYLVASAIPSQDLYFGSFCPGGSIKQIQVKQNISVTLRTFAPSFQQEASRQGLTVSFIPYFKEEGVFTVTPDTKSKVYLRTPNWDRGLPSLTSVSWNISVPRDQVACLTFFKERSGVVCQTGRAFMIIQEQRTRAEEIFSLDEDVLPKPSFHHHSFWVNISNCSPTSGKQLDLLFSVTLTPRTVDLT
In words: flow cytometry, Fab on CDCP1 Cell.

Test [4] deals with T2, Cynomolgus monkey CDCP1 (Cynomolgus monkey, UniProt A0A2K5VLA8 30-667).
T2 construct: construct not described
T2 sequence: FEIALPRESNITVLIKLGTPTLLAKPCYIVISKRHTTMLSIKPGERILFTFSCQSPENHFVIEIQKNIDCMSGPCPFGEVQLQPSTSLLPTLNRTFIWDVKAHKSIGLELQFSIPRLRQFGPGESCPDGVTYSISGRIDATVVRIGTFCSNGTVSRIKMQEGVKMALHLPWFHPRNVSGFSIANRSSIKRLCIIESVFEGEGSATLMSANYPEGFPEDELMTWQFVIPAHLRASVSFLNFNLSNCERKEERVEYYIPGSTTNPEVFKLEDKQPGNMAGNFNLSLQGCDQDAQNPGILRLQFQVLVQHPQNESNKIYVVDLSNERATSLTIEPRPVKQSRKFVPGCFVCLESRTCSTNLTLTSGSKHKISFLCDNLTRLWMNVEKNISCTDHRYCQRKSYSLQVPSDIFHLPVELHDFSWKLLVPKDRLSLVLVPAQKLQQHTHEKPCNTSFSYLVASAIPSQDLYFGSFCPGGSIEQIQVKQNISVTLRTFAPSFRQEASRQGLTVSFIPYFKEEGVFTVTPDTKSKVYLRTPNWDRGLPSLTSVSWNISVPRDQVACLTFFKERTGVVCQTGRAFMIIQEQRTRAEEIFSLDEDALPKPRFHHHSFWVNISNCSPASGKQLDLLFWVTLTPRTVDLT
Put plainly: ELISA; column head 'ELISA~EC50 Kd (nM)'.

In test [5] the target is T3, Human CDCP1 (human, UniProt Q9H5V8 30-667, limits assumed).
T3 construct: also called CUB domain-containing protein 1; SIMA135
T3 sequence (looked up): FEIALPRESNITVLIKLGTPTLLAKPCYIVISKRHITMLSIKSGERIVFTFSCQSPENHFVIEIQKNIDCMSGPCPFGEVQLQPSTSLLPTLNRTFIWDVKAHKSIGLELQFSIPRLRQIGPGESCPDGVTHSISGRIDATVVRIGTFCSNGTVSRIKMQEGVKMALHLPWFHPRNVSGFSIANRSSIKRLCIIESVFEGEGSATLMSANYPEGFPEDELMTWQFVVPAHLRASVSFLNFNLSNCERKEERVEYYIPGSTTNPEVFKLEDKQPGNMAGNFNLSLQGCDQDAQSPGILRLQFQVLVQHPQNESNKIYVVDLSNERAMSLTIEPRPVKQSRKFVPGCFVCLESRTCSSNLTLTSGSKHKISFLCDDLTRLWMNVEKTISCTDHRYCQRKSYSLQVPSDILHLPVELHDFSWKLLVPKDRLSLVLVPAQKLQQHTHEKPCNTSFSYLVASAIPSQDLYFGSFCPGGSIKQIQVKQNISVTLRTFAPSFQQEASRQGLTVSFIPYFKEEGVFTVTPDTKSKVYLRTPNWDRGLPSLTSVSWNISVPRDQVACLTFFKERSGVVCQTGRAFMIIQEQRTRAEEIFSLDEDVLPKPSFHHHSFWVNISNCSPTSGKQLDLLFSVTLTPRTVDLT
In words: ELISA; column head 'ELISA~EC50 Kd (nM)'.

The target in test [6] is T4, CDCP1 aas 30-367 (human, UniProt Q9H5V8 30-367).
T4 construct: range 30-367
T4 sequence (looked up): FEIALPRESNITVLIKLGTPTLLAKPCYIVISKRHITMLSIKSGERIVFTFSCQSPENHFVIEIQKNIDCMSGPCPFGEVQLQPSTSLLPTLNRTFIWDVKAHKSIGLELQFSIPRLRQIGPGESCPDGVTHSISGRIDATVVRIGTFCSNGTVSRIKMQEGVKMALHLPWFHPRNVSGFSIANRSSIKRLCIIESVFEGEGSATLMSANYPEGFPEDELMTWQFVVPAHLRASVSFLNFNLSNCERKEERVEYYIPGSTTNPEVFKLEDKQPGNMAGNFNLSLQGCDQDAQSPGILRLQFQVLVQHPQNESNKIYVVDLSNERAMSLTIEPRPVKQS
In words: ELISA, CDCP1 specificity on fragments.

Sequence of CD3 on the surface of T-cells (Jurkat reporter cells) (P07766 23-207): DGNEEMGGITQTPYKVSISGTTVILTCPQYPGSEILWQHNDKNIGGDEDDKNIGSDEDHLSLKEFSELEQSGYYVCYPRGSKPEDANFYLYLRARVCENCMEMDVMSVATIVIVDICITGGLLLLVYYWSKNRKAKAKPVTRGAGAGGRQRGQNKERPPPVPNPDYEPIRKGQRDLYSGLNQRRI

For the molecule “CDCP1 BiTE (CDCP1-002 Fab genetically fused to OKT3 anti-CD3 scFv) (bispecific antibody)”, the T-cell activation (NFAT-dependent GFP reporter, flow cytometry) in co-culture with HPAC cells at 1 nM BiTE in test [1] and in test [2] was 75% each time.

B1: CDCP1-004 Fab (Fab, V domains shown)
VH: EVQLVESGGGLVQPGGSLRLSCAASGFNISYYYMHWVRQAPGKGLEWVASIYSSYGYTSYADSVKGRFTISADTSKNTAYLQMNSLRAEDTAVYYCARVYYGFDYWGQGTLVTVSS
VL: DIQMTQSPSSLSASVGDRVTITCRASQSVSSAVAWYQQKPGKAPKLLIYSASSLYSGVPSRFSGSRSGTDFTLTISSLQPEDFATYYCQQSYYVYPITFGQGTKVEIK
notes: Tested as Fab
With B1, the “Flow Cytometry (MFI)” value in test [3] amounted to 770 MFI. Also, the half-maximal effective concentration (EC50) in test [4] turned out to be 34.9 nM; in test [5], 2.37 nM.

B2: CDCP1-008 Fab (Fab, V domains shown)
VH: EVQLVESGGGLVQPGGSLRLSCAASGFNISSYYMHWVRQAPGKGLEWVASIYPYSGYTYYADSVKGRFTISADTSKNTAYLQMNSLRAEDTAVYYCARAYYAMDYWGQGTLVTVSS
VL: DIQMTQSPSSLSASVGDRVTITCRASQSVSSAVAWYQQKPGKAPKLLIYSASSLYSGVPSRFSGSRSGTDFTLTISSLQPEDFATYYCQQSYYVYPITFGQGTKVEIK
notes: Tested as Fab
In the case of B2, the “Flow Cytometry (MFI)” value in test [3] stood at 673 MFI. Also, the 50% effective concentration (EC50) was found to be 97.1 nM in test [4] and 76.2 nM in test [5].

B3: CDCP1-005 Fab (Fab, V domains shown)
VH: EVQLVESGGGLVQPGGSLRLSCAASGFNISYYYIHWVRQAPGKGLEWVASIYPYYGSTYYADSVKGRFTISADTSKNTAYLQMNSLRAEDTAVYYCARAYYGFDYWGQGTLVTVSS
VL: DIQMTQSPSSLSASVGDRVTITCRASQSVSSAVAWYQQKPGKAPKLLIYSASSLYSGVPSRFSGSRSGTDFTLTISSLQPEDFATYYCQQSYWSFPITFGQGTKVEIK
notes: Tested as Fab
For B3, the “Flow Cytometry (MFI)” value in test [3] was 870 MFI.

B4: CDCP1-007 Fab (Fab, V domains shown)
VH: EVQLVESGGGLVQPGGSLRLSCAASGFNIYSYYIHWVRQAPGKGLEWVASIYPYYGYTSYADSVKGRFTISADTSKNTAYLQMNSLRAEDTAVYYCARAYYGMDYWGQGTLVTVSS
VL: DIQMTQSPSSLSASVGDRVTITCRASQSVSSAVAWYQQKPGKAPKLLIYSASSLYSGVPSRFSGSRSGTDFTLTISSLQPEDFATYYCQQSYFYWPITFGQGTKVEIK
notes: Tested as Fab
Consider B4, for which the “Flow Cytometry (MFI)” value in test [3] was 2.33 MFI. For the same molecule, the EC50 in test [4] was determined as 22.4 nM; in test [5], 18 nM.

B5: CDCP1-002 Fab (Fab, V domains shown)
VH: EVQLVESGGGLVQPGGSLRLSCAASGFNLSYYYIHWVRQAPGKGLEWVASIYSSSSYTSYADSVKGRFTISADTSKNTAYLQMNSLRAEDTAVYYCARAYYGFDYWGQGTLVTVSS
VL: DIQMTQSPSSLSASVGDRVTITCRASQSVSSAVAWYQQKPGKAPKLLIYSASSLYSGVPSRFSGSRSGTDFTLTISSLQPEDFATYYCQQSYYYYPITFGQGTKVEIK
notes: Tested as Fab from a synthetic Fab-phage library; Used 89Zr-labeled for PET and 125I-labeled for Bmax; also called CDCP1-4A06; CDCP1 Fab
Turning to B5, the “Flow Cytometry (MFI)” value in test [3] was 1160 MFI. In addition, the values for the EC50 in test [4] and in test [5] were 19.6 nM and 0.651 nM, respectively.

B6: CDCP1-003 Fab (Fab, V domains shown)
VH: EVQLVESGGGLVQPGGSLRLSCAASGFNISYYSMHWVRQAPGKGLEWVASISPYSGYTSYADSVKGRFTISADTSKNTAYLQMNSLRAEDTAVYYCARGYYALDYWGQGTLVTVSS
VL: DIQMTQSPSSLSASVGDRVTITCRASQSVSSAVAWYQQKPGKAPKLLIYSASSLYSGVPSRFSGSRSGTDFTLTISSLQPEDFATYYCQQYYYFYPFTFGQGTKVEIK
notes: Tested as Fab
For B6, the “Flow Cytometry (MFI)” value in test [3] is 180 MFI. The values for the concentration giving a half-maximal response (EC50) in test [4] and in test [5] were 666 nM and 65.3 nM, respectively.

B7: CDCP1-006 Fab (Fab, V domains shown)
VH: EVQLVESGGGLVQPGGSLRLSCAASGFNLYYSYMHWVRQAPGKGLEWVAYISPYSGSTYYADSVKGRFTISADTSKNTAYLQMNSLRAEDTAVYYCARYSYSALDYWGQGTLVTVSS
VL: DIQMTQSPSSLSASVGDRVTITCRASQSVSSAVAWYQQKPGKAPKLLIYSASSLYSGVPSRFSGSRSGTDFTLTISSLQPEDFATYYCQQSSWHYHLFTFGQGTKVEIK
notes: Tested as Fab
Regarding B7, the “Flow Cytometry (MFI)” value in test [3] was found to be 52.3 MFI. For the same molecule, the binding result in test [6] was “no binding”. Further, the 50% effective concentration (EC50) in test [4] is 3.34 nM; in test [5] it was 29.6 nM.

Source of the values: US20210179729A1 (University of California, published 2021).
